The text below walks through data of patent publication US20230331872A1 (CYTOIMMUNE THERAPEUTICS, published 2023).

For this assay, the target named is T1, Recombinant Human NKG2D, amino acid Phe78-Val216 (Accession #P26718) (Biolegends, #781908) (human, UniProt P26718 78-216).
T1 construct: range 78-216; Bought reagent; also called NKG2D-fusion protein; CD314
T1 sequence (looked up): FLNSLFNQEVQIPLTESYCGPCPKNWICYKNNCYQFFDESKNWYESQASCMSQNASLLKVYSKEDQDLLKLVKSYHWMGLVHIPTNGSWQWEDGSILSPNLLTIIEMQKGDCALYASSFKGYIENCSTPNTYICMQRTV
In words: home developed BiKE detection ELISA with NKG2D-fusion protein coated plate, 72 h serum-free NK cell supernatant. On the procedure:
An unique ELISA assay was developed for detecting the concentration of full human Source Scfv-anti NKG2D and GPRCSD. Firstly, the Nunc MaxiSorp™ flat-bottom plate (Invitrogen™, 44-2404-21) was coated with 100 ng/well of Recombinant Human NKG2D, amino acid Phe78-Va1216 (Accession #P26718) (Biolegends, #781908) dissolved in 100 μl of DPBS (Gibco, 14190) at 4 degree overnight. After washing with 1x DPBS buffer with final 0.05% Tween 20 and blocking with 1% BSA in 1x DPBS buffer with final 0.05% Tween 20, 100 μl of samples and standard in blocking buffer were added to each well. The standard used in this assay was a human anti human NKG2D antibody, CD314 (NKG2D)-PE, human, Cat: 130-111-645, recombinant human IgG1, Miltenyi Biotec GmbH (0.25 mg/ml). For detection, a Biotinylated Goat anti-Human IgG (H+L) Cross-Adsorbed Secondary Antibody and HRP-Conjugated Streptavidin (Thermo Scientific™, N100), as well as 1-Step™ Ultra TMB-ELISA Substrate Solution, (Bio-Rad #34029). Stop buffer used was 1 M H₃PO₄.
0.5-1×10⁶ transduced NK cells (FIG. 39) were seeded and cultured in serum free media for 72 hours. Supernatant was subsequently collected, centrifuged, and immediately added to IL-15 pre-coated ELISA plate (R&D Systems S1500) and home developed BiKE detection ELISA with NKG2D-fusion protein coated plate. […] Data present here was as average concentration from four independent donors as mean±SD.

B1: GPRC5D-NKG2D BiKE (GN1-BiKE) secreted from NK cells transduced with P61: GN1-BiKE BCMA-CAR--SIL-15-RQR8 (bispecific antibody, human IgG4 S228P, F234A L235A, N297Q)
chain: DIQMTQSPSSLSASVGDRVTITCKASQNVATHVGWYQQKPGKAPKRLIYSASYRYSGVPSRFSGSGSGTEFTLTISNLQPEDFATYYCQQYNRYPYTFGQGTKLEIKGGGGSGGGGSGGGGSQVQLVQSGAEVKKPGASVKVSCKASGYSFTGYTMNWVRQAPGQGLEWMGLINPYNSDTNYAQKLQGRVTMTTDTSTSTAYMELRSLRSDDTAVYYCARVALRVALDYWGQGTLVTVSSPSGQAGAAASESLFVSNHAYQSALTQPASVSGSPGQSITISCSGSSSNIGNNAVNWYQQLPGKAPKLLIYYDDLLPSGVSDRFSGSKSGTSAFLAISGLQSEDEADYYCAAWDDSLNGPVFGGGTKLTVLGGGGSGGGGSGGGGSQVQLVESGGGLVKPGGSLRLSCAASGFTFSSYGMHWVRQAPGKGLEWVAFIRYDGSNKYYADSVKGRFTISRDNSKNTLYLQMNSLRAEDTAVYYCAKDRGLGDGTYFDYWGQGTTVTVSSESKYGPPCPPCPAPEAAGGPSVFLFPPKPKDTLMISRTPEVTCVVVDVSQEDPEVQFNWYVDGVEVHNAKTKPREEQFQSTYRVVSVLTVLHQDWLNGKEYKCKVSNKGLPSSIEKTISKAKGQPREPQVYTLPPSQEEMTKNQVSLTCLVKGFYPSDIAVEWESNGQPENNYKTTPPVLDSDGSFFLYSRLTVDKSRWQEGNVFSCSVMHEALHNHYTQKSLSLSLGK
notes: also called IL2 SP BiKE; GPRC5D-NKG2D BiKE-BCMA CAR-SIL-15-RQR8-P61
As for B1, the binding result is given as “binds”.

B2: NKG2D-GPRC5D BiKE (NG2-BiKE) secreted from NK cells transduced with P62: NG2-BiKE BCMA-CAR--SIL-15-RQR8 (bispecific antibody, human IgG4 S228P, F234A L235A, N297Q)
chain: QVQLVESGGGLVKPGGSLRLSCAASGFTFSSYGMHWVRQAPGKGLEWVAFIRYDGSNKYYADSVKGRFTISRDNSKNTLYLQMNSLRAEDTAVYYCAKDRGLGDGTYFDYWGQGTTVTVSSGGGGSGGGGSGGGGSQSALTQPASVSGSPGQSITISCSGSSSNIGNNAVNWYQQLPGKAPKLLIYYDDLLPSGVSDRFSGSKSGTSAFLAISGLQSEDEADYYCAAWDDSLNGPVFGGGTKLTVLPSGQAGAAASESLFVSNHAYQVQLVQSGAEVKKPGASVKVSCKASGYSFTGYTMNWVRQAPGQGLEWMGLINPYNSDTNYAQKLQGRVTMTTDTSTSTAYMELRSLRSDDTAVYYCARVALRVALDYWGQGTLVTVSSGGGGSGGGGSGGGGSDIQMTQSPSSLSASVGDRVTITCKASQNVATHVGWYQQKPGKAPKRLIYSASYRYSGVPSRFSGSGSGTEFTLTISNLQPEDFATYYCQQYNRYPYTFGQGTKLEIKESKYGPPCPPCPAPEAAGGPSVFLFPPKPKDTLMISRTPEVTCVVVDVSQEDPEVQFNWYVDGVEVHNAKTKPREEQFQSTYRVVSVLTVLHQDWLNGKEYKCKVSNKGLPSSIEKTISKAKGQPREPQVYTLPPSQEEMTKNQVSLTCLVKGFYPSDIAVEWESNGQPENNYKTTPPVLDSDGSFFLYSRLTVDKSRWQEGNVFSCSVMHEALHNHYTQKSLSLSLGK
notes: also called IL2 SP BiKE; NKG2D-GPRC5D BiKE-BCMA CAR-SIL-15-RQR8-P62
Consider B2, for which the binding result is recorded as “binds”.
